From article PMC3095777, “Structure and Activity of a Novel Archaeal β-CASP Protein with N-Terminal KH Domains” (Structure(London, England:1993), 2011)

T1: MTH1203 (Methanothermobacter thermautotrophicus …, UniProt O27271 1-636)
T1 sequence: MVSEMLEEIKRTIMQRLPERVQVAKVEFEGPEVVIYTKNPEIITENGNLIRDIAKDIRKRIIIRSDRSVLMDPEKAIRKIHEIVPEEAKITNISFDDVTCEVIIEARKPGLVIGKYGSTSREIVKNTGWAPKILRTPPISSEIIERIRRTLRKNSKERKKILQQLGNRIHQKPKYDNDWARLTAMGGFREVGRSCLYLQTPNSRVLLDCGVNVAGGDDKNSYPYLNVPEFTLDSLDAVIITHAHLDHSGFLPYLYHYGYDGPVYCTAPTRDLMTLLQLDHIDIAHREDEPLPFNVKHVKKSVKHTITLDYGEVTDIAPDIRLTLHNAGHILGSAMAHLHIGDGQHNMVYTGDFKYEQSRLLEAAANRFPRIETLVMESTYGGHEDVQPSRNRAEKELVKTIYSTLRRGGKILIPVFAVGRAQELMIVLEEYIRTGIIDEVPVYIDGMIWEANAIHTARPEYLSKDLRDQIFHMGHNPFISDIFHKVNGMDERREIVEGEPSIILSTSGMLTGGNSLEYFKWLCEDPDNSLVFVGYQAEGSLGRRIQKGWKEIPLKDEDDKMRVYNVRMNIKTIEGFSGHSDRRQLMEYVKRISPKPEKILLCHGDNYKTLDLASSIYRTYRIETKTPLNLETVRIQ

B1: C7 (ssRNA)
RNA: CCCCCCC
B2: MTH1203 (enzyme, Methanothermobacter thermautotrophicus, UniProt O27271 1-636, looked up)
chain: T1 sequence
notes: MTH1203 from Methanothermobacter thermautotrophicus strain delta H; mth1203 gene amplified from genomic DNA, cloned into pETYSBLIC-3C; predicted molecular mass 73.1 kDa; residues up to 636 named; Dimer at 0.5-0.7 M NaCl or KCl, monomer at 1 M NaCl; full cloning and purification details are in the Supplemental Experimental Procedures; also called β-CASP metallo-β-lactamase family nuclease; source: …
B3: A7 (ssRNA)
RNA: AAAAAAA
B4: U7 (ssRNA)
RNA: UUUUUUU
B5: G7 (ssRNA)
RNA: GGGGGGG

Experiments:
[1] = target: T1, MTH1203; assay: fluorescence anisotropy; 20 mM Tris pH 8.0, 1 M NaCl, 5 nM 5'-fluorescein RNA; temperature not stated; conditions: protein: recombinant; tags: His-tag (His-tagged construct used in titrations); label: 5' fluorescein; single strand
[2] = target: the molecule itself; assay: SEC-MALS; size exclusion chromatography in line with multiangle laser light scattering; MTH1203 alone; 0.5 M NaCl, or 0.7 M NaCl or KCl

Binder	binding result [1]	also measured
B1	no binding	
B2		stoichiometry N [2]: 2
B3	no binding	
B4		Kd [1]: 9.2 µM
B5	no binding	
